# Results reported in patent US20080286312A1.
# Tests used:
# [1] = molecular target: H-2K^b (mouse) (UniProt P01901); test: flow cytometry, RMA-S transfectant Y317-2, 37° C.
# [2] = molecular target: K^b/OVA257-264 complex on Y317-2 cells (H-2K^b with OVA257-264 linked to human membranal β2m) (mouse; chicken; human); test: flow cytometry, RMA-S transfectant Y317-2, 37° C.
# [3] = molecular target: H-2K^k (mouse) (UniProt P04223); test: flow cytometry with QIFIKIT, parental MD45 cells
# [4] = molecular target: H-2K^k (mouse) (UniProt P04223); test: flow cytometry with QIFIKIT, MD45 transfectant 427-24
# [5] = molecular target: H-2K^k (mouse) (UniProt P04223); test: flow cytometry with QIFIKIT, MD45 transfectant 425-44
# [6] = molecular target: hβ2m-CD40 (human β2m fused through a bridge to the mouse CD40 transmembrane and cytoplasmic region) (human; mouse) (UniProt P61769); test: cell-based or functional assay
# [7] = molecular target: Ha255-262 dcβ2m (Ha255-262 - linker - human β2m - bridge - mouse CD3 ζ) (influenza virus; human; mouse) (UniProt P61769); test: flow cytometry with QIFIKIT, MD45 transfectant 427-24
# [8] = molecular target: NP50-57 dcβ2m (NP50-57 - linker - human β2m - bridge - mouse CD3 ζ) (influenza virus; human; mouse) (UniProt P61769); test: flow cytometry with QIFIKIT, MD45 transfectant 425-44
# [9] = molecular target: H-2K^k (mouse) (UniProt P04223); test: derived from QIFIKIT flow cytometry with Fab13.4.1 and AF3-12.1 on 427-24 cells
# [10] = molecular target: H-2K^b (mouse) (UniProt P01901); test: derived from MFI of 25D-1.16 and anti-H-2K^b staining of Y317-2 cells at 37° C.
# [11] = molecular target: H-2K^d (mouse) (UniProt P01902); test: cell-based or functional assay
# Sequence of UniProt P01902 (P01902 22-305 limits assumed): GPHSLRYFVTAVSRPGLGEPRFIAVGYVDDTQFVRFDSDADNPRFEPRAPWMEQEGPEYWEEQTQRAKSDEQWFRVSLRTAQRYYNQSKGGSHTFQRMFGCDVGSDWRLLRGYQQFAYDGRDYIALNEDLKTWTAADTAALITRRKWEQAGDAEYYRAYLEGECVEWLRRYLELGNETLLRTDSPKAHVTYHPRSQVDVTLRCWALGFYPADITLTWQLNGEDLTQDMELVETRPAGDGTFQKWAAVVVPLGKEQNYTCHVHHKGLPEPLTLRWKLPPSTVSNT
# Sequence of UniProt P04223 (P04223 22-369 limits assumed): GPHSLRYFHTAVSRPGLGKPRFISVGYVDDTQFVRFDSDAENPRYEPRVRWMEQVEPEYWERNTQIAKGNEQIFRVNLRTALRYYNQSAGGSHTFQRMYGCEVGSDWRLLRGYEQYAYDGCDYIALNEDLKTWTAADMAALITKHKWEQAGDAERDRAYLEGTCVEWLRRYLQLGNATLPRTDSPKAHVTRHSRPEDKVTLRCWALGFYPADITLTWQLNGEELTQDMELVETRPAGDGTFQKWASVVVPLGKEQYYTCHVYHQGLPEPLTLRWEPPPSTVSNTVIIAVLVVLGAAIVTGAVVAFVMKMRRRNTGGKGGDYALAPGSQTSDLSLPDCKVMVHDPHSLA
# Sequence of UniProt P01901 (P01901 22-369 limits assumed): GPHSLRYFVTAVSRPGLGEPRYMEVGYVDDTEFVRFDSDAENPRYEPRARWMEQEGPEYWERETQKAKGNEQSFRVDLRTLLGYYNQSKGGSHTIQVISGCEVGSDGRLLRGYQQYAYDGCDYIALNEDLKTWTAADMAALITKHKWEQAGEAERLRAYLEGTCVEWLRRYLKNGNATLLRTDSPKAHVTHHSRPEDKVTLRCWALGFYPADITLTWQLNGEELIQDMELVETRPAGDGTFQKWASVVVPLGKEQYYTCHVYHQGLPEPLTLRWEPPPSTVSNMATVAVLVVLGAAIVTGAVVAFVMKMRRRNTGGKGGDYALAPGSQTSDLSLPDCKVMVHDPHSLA
substance,measurement,setting,value
20-8-4 anti-H-2K^b mAb (antibody),mean fluorescence intensity,[1],122 MFI
25-D1.16 mAb specific to the complex H-2K^b/OVA257-264 (antibody),mean fluorescence intensity,[2],69.7 MFI
AF3-12.1 anti-K^k mAb (antibody),quantity of surface antigen (QIFIKIT),[3],10900
same,quantity of surface antigen (QIFIKIT),[4],28600
same,quantity of surface antigen (QIFIKIT),[5],37600
BM-63 anti-human β2m mAb (antibody),decrease of total cellular IκBα (immunoblot) in A20 transfectant,[6],39%
same,quantity of surface antigen (QIFIKIT),[7],173000
same,quantity of surface antigen (QIFIKIT),[8],467000
Ha255-262 dcβ2m (Ha255-262 - linker - human β2m - bridge - mouse CD3 ζ) (from UniProt P61769 21-119; P24161 31-164),occupation of surface H-2K^k molecules,[9],20%
OVA257-264 dcβ2m with human β2m and H-2K^b anchor (from UniProt P61769 21-119),H-2K^b occupancy,[10],57%
hβ2m-CD40 (human β2m fused through a bridge to the mouse CD40 transmembrane and cytoplasmic region) (from UniProt P61769 21-119; P27512 194-289),reduction of total cellular IκBα (immunoblot) in A20 transfectant after incubation with an anti-H-2 K^d mAb,[11],71%
